B1: BCP-73 (bispecific antibody)
chain 1: not shown
chain 2: EIVLTQSPATLSLSPGERATLSCRASKGVSTSGYSYLHWYQQKPGQAPRLLIYLASYLESGVPARFSGSGSGTDFTLTISSLEPEDFAVYYCQHSRDLPLTFGGGTKVEIKRTVAAPSVFIFPPSDEQLKSGTASVVCLLNNFYPREAKVQWKVDNALQSGNSQESVTEQDSKDSTYSLSSTLTLSKADYEKHKVYACEVTHQGLSSPVTKSFNRGEC
B2: BCP-74 (bispecific antibody)
chain 1: not shown
chain 2: B1 chain 2
B3: BCP-75 (bispecific antibody)
chain 1: not shown
chain 2: B1 chain 2
B4: BCP-78 (bispecific antibody)
chain 1: EVQLVESGGGVVQPGRSLRLSCAASGRTITTITMGWFRQAPGKGREFVASHSWTDNNPYYADSVKGRFTISRDNAKNTLYLQMNSLRPEDTAVYYCAATARRSFVGRQWYTEARQYDYWGQGTLVTVSSEPKSSDKTHTSPPSPQVQLVESGGGVVQPGRSLRLDCKASGITFSNSGMHWVRQAPGKGLEWVAVIWYDGSKRYYADSVKGRFTISRDNSKNTLFLQMNSLRAEDTAVYYCATNDDYWGQGTLVTVSSASTKGPSVFPLAPCSRSTSESTAALGCLVKDYFPEPVTVSWNSGALTSGVHTFPAVLQSSGLYSLSSVVTVPSSSLGTKTYTCNVDHKPSNTKVDKRVESKYGPPCPPCPAPEFLGGPSVFLFPPKPKDTLMISRTPEVTCVVVDVSQEDPEVQFNWYVDGVEVHNAKTKPREEQFNSTYRVVSVLTVLHQDWLNGKEYKCKVSNKGLPSSIEKTISKAKGQPREPQVYTLPPSQEEMTKNQVSLTCLVKGFYPSDIAVEWESNGQPENNYKTTPPVLDSDGSFFLYSRLVDKSRWQEGNVFSCSVMHEALHNHYTQKSLSLSLGK
chain 2: not shown

biological target: human PD-1 expressed on CHO cells (human, UniProt Q15116 25-288); assay: cell-based or functional assay
Sequence (Q15116 25-288): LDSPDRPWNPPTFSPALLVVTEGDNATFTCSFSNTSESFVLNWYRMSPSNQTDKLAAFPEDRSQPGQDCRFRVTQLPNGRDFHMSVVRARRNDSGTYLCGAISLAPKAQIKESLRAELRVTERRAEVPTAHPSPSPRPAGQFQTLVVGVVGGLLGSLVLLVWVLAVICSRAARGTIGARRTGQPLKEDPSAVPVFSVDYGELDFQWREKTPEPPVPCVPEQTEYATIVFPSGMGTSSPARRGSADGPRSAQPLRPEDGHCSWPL

First: B1
Second: B2
The “EC50 (nM), NFAT luciferase, PD-1/NFAT Reporter-Jurkat cells with CHO-K1 expressing human PD-L1 and TCR activator” value of the first is 2.7-fold lower: 1.6 nM for the first, 4.3 nM for the second.

Compared with B3, B4 is 1.6-fold higher in “EC50 (nM), NFAT luciferase, PD-1/NFAT Reporter-Jurkat cells with CHO-K1 expressing human PD-L1 and TCR activator” value: 5.5 nM for the first, 8.9 nM for the second.

biological target: CTLA-4-Fc (GenScript, Z03373-50) (UniProt P16410 36-161); assay: cell-based or functional assay
Sequence (P16410 36-161 limits assumed, one chain of several): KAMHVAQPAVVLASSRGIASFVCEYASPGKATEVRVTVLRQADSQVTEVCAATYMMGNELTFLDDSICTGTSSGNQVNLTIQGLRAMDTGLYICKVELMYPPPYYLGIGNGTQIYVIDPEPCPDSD

B1 and B2 are within 1.5-fold of each other in “EC50 (nM), IL-2 secretion, CD4+ T cells with CHO-K1/human CD80 and CTLA-4-Fc” value: 12.1 nM for the first, 14.3 nM for the second.

B3 and B4 are within 1.5-fold of each other in “EC50 (nM), IL-2 secretion, CD4+ T cells with CHO-K1/human CD80 and CTLA-4-Fc” value: 12.1 nM for the first, 8.4 nM for the second.

Reference: patent US20230059836A1 (NANJING LEGEND BIOTECH, published 2023)
